Like-named read-outs stand apart in the source and are kept apart here.
Assays:
casein [1] = molecular target: casein
casein [2] = molecular target: casein; remark: listed apart in the source

- Km of casein proteolysis (substrate–velocity curve, UV absorbance at 280 nm, casein 7–80 µM, 37 °C, 50 mM Tris pH 7.8) (casein [1]): 14.6 µM
- Km of casein proteolysis (substrate–velocity curve, UV absorbance at 280 nm, casein 7–80 µM, 37 °C, 50 mM Tris pH 7.8) (casein [2]): 14.1 µM/min
Substance: purified S. trilobatum serine protease (StSP) (enzyme)
